Results on one protein are retold here after patent US20250313859.

This series has as its target anti-human ARSA (hARSA) antibodies in cerebrospinal fluid and serum of cynomolgus macaques given AAVhu68.CB7.CI.hARSAco.rBG.

B1: human ARSA enzyme expressed from the AAVhu68.CB7.CI.hARSAco.rBG transgene in cynomolgus macaques (protein)
chain: RPPNIVLIFADDLGYGDLGCYGHPSSTTPNLDQLAAGGLRFTDFYVPVSLCTPSRAALLTGRLPVRMGMYPGVLVPSSRGGLPLEEVTVAEVLAARGYLTGMAGKWHLGVGPEGAFLPPHQGFHRFLGIPYSHDQGPCQNLTCFPPATPCDGGCDQGLVPIPLLANLSVEAQPPWLPGLEARYMAFAHDLMADAQRQDRPFFLYYASHHTHYPQFSGQSFAERSGRGPFGDSLMELDAAVGTLMTAIGDLGLLEETLVIFTADNGPETMRMSRGGCSGLLRCGKGTTYEGGVREPALAFWPGHIAPGVTHELASSLDLLPTLAALAGAPLPNVTLDGFDLSPLLLGTGKSPRQSLFFYPSYPDEVRGVFAVRTGKYKAHFFTQGSAHSDTTADPACHASSSLTAHEPPLLYDLSKDPGENYNLLGGVAGATPEVLQALKQLQLLKAQLDAAVTFGPSQVARGEDPALQICCHPGCTPRPACCHCPDPHA
Take B1: the “ARSA activity levels in CSF (hydrolysis of 4-nitrocatechol sulfate)” value is recorded as “CSF ARSA activity levels returned to approximately baseline levels over the subsequent 28 days”.
